Reference: PMC10141581, “Autonomous Synthesis of Functional, Permanently Phosphorylated Proteins for Defining the Interactome of Monomeric 14-3-3ζ” (ACS Central Science, 2023)

Molecular target: the molecule itself
Assay: SEC-MALS; 14-3-3ζ variants alone, injected at 50 μM initial concentration; Superdex 200 10/300 GL; 50 mM Tris pH 7.4, 150 mM NaCl, 0.5 mM TCEP; room temperature; dimer to monomers

B1: 14-3-3ζ S58E (natural protein, human)
chain: MDKNELVQKAKLAEQAERYDDMAACMKSVTEQGAELSNEERNLLSVAYKNVVGARRSEWRVVSSIEQKTEGAEKKQQMAREYREKIETELRDICNDVLSLLEKFLIPNASQAESKVFYLKMKGDYYRYLAEVAAGDDKKGIVDQSQQAYQEAFEISKKEMQPTHPIRLGLALNFSVFYYEILNSPEKACSLAKTAFDEAIAELDTLSEESYKDSTLIMQLLRDNLTLWTS
notes: 14-3-3 protein zeta with Glu at position 58 (ζ-isoform numbering); also called S58E variant; phosphomimetic S58E; source: E. coli, purified
- stoichiometry N: 2
